Patent US20220298235A1 (AKESO BIOPHARMA, published 2022)

T1: human IL-23 (IL-23-His-Biotin) (human, UniProt Q9NPF7 20-189; P29460 23-328, biotin label, site not stated)
T1 construct: Akesobio lot 20161209; His-tagged and biotinylated
T1 sequence (looked up) 1: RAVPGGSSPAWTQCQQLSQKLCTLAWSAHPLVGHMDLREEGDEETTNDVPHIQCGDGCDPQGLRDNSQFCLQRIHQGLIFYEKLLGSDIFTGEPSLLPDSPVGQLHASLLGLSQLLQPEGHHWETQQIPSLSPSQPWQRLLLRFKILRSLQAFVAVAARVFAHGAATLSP
T1 sequence (looked up) 2: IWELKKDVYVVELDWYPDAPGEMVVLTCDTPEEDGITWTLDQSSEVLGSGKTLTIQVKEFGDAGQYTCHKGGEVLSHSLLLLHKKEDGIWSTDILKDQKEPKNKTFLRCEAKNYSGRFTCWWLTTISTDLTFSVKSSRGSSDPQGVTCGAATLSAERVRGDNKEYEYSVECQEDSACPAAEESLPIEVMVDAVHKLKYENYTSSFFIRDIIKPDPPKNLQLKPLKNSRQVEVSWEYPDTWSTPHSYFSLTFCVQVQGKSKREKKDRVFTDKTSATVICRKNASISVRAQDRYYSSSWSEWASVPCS

T2: Human IL12 (His Tag) (human, UniProt P29459 23-219; P29460 23-328)
T2 construct: Bought His-tagged heterodimer
T2 sequence (looked up) 1: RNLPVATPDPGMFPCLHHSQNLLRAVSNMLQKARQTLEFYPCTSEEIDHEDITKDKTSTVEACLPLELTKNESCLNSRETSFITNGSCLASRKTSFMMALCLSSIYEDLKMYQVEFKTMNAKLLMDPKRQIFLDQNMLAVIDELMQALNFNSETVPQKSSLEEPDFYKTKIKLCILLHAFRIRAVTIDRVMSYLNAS
T2 sequence (looked up) 2: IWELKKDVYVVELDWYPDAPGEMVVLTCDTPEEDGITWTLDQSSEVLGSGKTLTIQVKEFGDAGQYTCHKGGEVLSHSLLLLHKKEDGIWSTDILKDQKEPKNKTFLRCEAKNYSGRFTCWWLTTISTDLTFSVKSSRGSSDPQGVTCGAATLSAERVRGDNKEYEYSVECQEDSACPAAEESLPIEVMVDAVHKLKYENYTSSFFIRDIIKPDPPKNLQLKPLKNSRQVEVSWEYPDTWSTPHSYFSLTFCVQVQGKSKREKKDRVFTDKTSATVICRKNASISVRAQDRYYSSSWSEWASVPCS


How the values were obtained:
[1] = biological target: T1, human IL-23 (IL-23-His-Biotin); assay: FACS competition, IL-23-His-Biotin 2 µg/mL on 293T-IL-12Rβ1&IL-23R cells
Protocol: (§1) 200 μL of 1% PBSA was added into each sample, and the mixture was centrifuged at 700×g for 5 min to discard the supernatant. According to experiment design, correspondingly diluted antibody (highest final concentration of 30 μg/mL, 3-fold dilution, 8 concentrations in total) and human IL-23 (IL-23-His-Biotin, Akesobio, 20161209) (final concentration of 2 μg/mL) were mixed at a ratio of 1:1, and a blank control was set. The mixture of antibody and human IL23 was incubated on ice for 30 min and then added to the cell precipitate at 100 μL/sample. The resulting mixture was well mixed and incubated on ice for 60 min. 200 μL of 1% PBSA was added, and the mixture was centrifuged at 700×g for 5 min to discard the supernatant, and then washed twice. FITC Steptavidin (Biolegend, Cat. No.: 405202) was diluted at a ratio of 1:500 and added to each tube at 100 μL. The mixture was well mixed and incubated on ice for 40 min in the absence of light. 200 μL of 1% PBSA was added, and the mixture was centrifuged at 700×g for 5 min to discard the supernatant, and then washed twice. 1% PBSA was added at 200 μL/tube, and the cells were resuspended and transferred to a flow cytometry tube for testing.

Human IL12 (His Tag) [2] = biological target: T2, Human IL12 (His Tag); assay: FACS competition, IL-12-His 20 nM on 293T-IL-12Rβ1&IL-23R cells; antibody 30 µg/mL
Protocol: (§2) 200 μL of 1% PBSA was added into each sample, and the mixture was centrifuged at 700×g for 5 min to discard the supernatant. According to experiment design, correspondingly diluted antibody (highest final concentration of 30 μg/mL, 3-fold dilution, 8 concentrations in total) and human IL-12 (Sino Biological, Cat. No.: CT-050-H08H-20) (final concentration of 20 nM) were mixed at a ratio of 1:1, and a blank control was set. The mixture of antibody and human IL12 was incubated on ice for 30 min and then added to the cell precipitate at 100 μL/sample. The resulting mixture was well mixed and incubated on ice for 60 min 200 μL of 1% PBSA was added, and the mixture was centrifuged at 700×g for 5 min to discard the supernatant, and then washed twice. Alexa Fluor® 488 anti-His tag antibody (Biolegend, Cat. No.: 652509) was diluted at a ratio of 1:400 and added to each tube at 100 μL. The mixture was well mixed and incubated on ice for 40 min in the absence of light. 200 μL of 1% PBSA was added, and the mixture was centrifuged at 700×g for 5 min to discard the supernatant, and then washed twice. 1% PBSA was added at 200 μL/tube, and the cells were resuspended and transferred to a flow cytometry tube for testing.

Human IL12 (His Tag) [3] = biological target: T2, Human IL12 (His Tag); assay: FACS competition, IL-12-His 20 nM on 293T-IL-12Rβ1&IL-23R cells; antibody 0.01 µg/mL
Protocol: as §2

Human IL12 (His Tag) [4] = biological target: T2, Human IL12 (His Tag); assay: FACS competition, IL-12-His 20 nM on 293T-IL-12Rβ1&IL-23R cells; antibody 0.12 µg/mL
Protocol: as §2

Human IL12 (His Tag) [5] = biological target: T2, Human IL12 (His Tag); assay: FACS competition, IL-12-His 20 nM on 293T-IL-12Rβ1&IL-23R cells; antibody 0.37 µg/mL
Protocol: as §2

Human IL12 (His Tag) [6] = biological target: T2, Human IL12 (His Tag); assay: FACS competition, IL-12-His 20 nM on 293T-IL-12Rβ1&IL-23R cells; antibody 3.33 µg/mL
Protocol: as §2

[7] = biological target: T1, human IL-23 (IL-23-His-Biotin); assay: FACS competition, IL-23-His-Biotin 2 µg/mL on 293T-IL-12Rβ1&IL-23R cells; antibody 10 µg/mL
Protocol: as §1

[8] = biological target: T1, human IL-23 (IL-23-His-Biotin); assay: FACS competition, IL-23-His-Biotin 2 µg/mL on 293T-IL-12Rβ1&IL-23R cells; antibody 30 µg/mL
Protocol: as §1

[9] = biological target: T1, human IL-23 (IL-23-His-Biotin); assay: FACS competition, IL-23-His-Biotin 2 µg/mL on 293T-IL-12Rβ1&IL-23R cells; antibody 1.11 µg/mL
Protocol: as §1

Row | EC50 [1] | MFI (Human IL12 (His Tag) [2]) | MFI (Human IL12 (His Tag) [3]) | MFI (Human IL12 (His Tag) [4]) | MFI (Human IL12 (His Tag) [5]) | MFI (Human IL12 (His Tag) [6]) | MFI [7] | MFI [8] | MFI [9] | Binder
1 | 0.7 µg/mL | 31.6 MFI | 163 MFI | 151 MFI | 87.5 MFI | 40.2 MFI | 12.7 MFI | 11.9 MFI | 81.6 MFI | H5L10 (antibody, human IgG1, kappa, V domains shown, human IgG1 / kappa constant regions; also called humanized antibody H5L10) VH: EVQLVQSGAEVKKPGESLKISCQSSGYSFTTYWIGWVRQMPGQGLEWIGIMSPVDSDIRYNPMFRGQVTMSVDKSSSTAYLQWSSLKASDTAMYYCARRRPGQGYFDFWGQGTMVTVSS VL: EIVLTQSPATLSASPGERATISCRASQSVGSWLAWYQQKPGQAPRSLIYAASNLQSGIPARFSGSGSGTDFTLTISSLEPEDFAVYYCQQYNIYPYTFGQGTRLEIKR
2 | 4.25 µg/mL | 117 MFI | 169 MFI | 160 MFI | 159 MFI | 146 MFI | 136 MFI | 104 MFI | 184 MFI | H5L9 (antibody, human IgG1, kappa, V domains shown, human IgG1 (P01857) / kappa (P01834) constant regions; also called humanized antibody H5L9) VH: EVQLVQSGAEVKKPGESLKISCQSSGYSFTTYWIGWVRQMPGQGLEWIGIMSPVDSDIRYNPMFRGQVTMSVDKSSSTAYLQWSSLKASDTAMYYCARRRPGQGYFDFWGQGTMVTVSS VL: DIQMTQSPSSLSASVGDRVTITCKASQNVGSWLAWYQQKPGKAPKSLIYSASSRQSGVPSRFSGSGSGTDFTLTISSLQPEDFATYYCQQYDIYPFTFGQGTKLEIKR
3 | 0.864 µg/mL | 33 MFI | 166 MFI | 145 MFI | 103 MFI | 42.2 MFI | 14.5 MFI | 12.9 MFI | 97.6 MFI | H5L11 (antibody, human IgG1, kappa, V domains shown, human IgG1 / kappa constant regions; also called humanized antibody H5L11) VH: EVQLVQSGAEVKKPGESLKISCQSSGYSFTTYWIGWVRQMPGQGLEWIGIMSPVDSDIRYNPMFRGQVTMSVDKSSSTAYLQWSSLKASDTAMYYCARRRPGQGYFDFWGQGTMVTVSS VL: EIVLTQSPATLSASPGERATISCRASQSVSSWLAWYQQKPGQAPRSLIYSASNLQSGIPARFSGSGSGTDFTLTISSLEPEDFAVYYCQQYNIYPYTFGQGTRLEIKR
4 | 0.775 µg/mL | 31.8 MFI | 161 MFI | 133 MFI | 86.6 MFI | 31.8 MFI | 12.7 MFI | 12.3 MFI | 88.5 MFI | H5L12 (antibody, human IgG1, kappa, V domains shown, human IgG1 / kappa constant regions; also called humanized antibody H5L12) VH: EVQLVQSGAEVKKPGESLKISCQSSGYSFTTYWIGWVRQMPGQGLEWIGIMSPVDSDIRYNPMFRGQVTMSVDKSSSTAYLQWSSLKASDTAMYYCARRRPGQGYFDFWGQGTMVTVSS VL: EIVLTQSPATLSASPGERATISCRASQSVSSWLAWYQQKPGQAPRSLIYAASNRQSGIPARFSGSGSGTDFTLTISSLEPEDFAVYYCQQYNIYPYTFGQGTRLEIKR
5 | 0.881 µg/mL | 34.9 MFI | 149 MFI | 146 MFI | 113 MFI | 51.9 MFI | 16.7 MFI | 14.1 MFI | 95.6 MFI | H5L14 (antibody, human IgG1, kappa, V domains shown, human IgG1 / kappa constant regions; also called humanized antibody H5L14) VH: EVQLVQSGAEVKKPGESLKISCQSSGYSFTTYWIGWVRQMPGQGLEWIGIMSPVDSDIRYNPMFRGQVTMSVDKSSSTAYLQWSSLKASDTAMYYCARRRPGQGYFDFWGQGTMVTVSS VL: EIVLTQSPATLSASPGERATISCRASQSVSSWLAWYQQKPGQAPRSLIYAASNLQSGIPARFSGSGSGTDFTLTISSLEPEDFAVYYCQQYNIYPFTFGQGTRLEIKR
6 | 1.16 µg/mL | 28.7 MFI | 160 MFI | 137 MFI | 95.7 MFI | 29.7 MFI | 11.5 MFI | 9.64 MFI | 121 MFI | ustekinumab (antibody, V domains shown) VH: EVQLVQSGAEVKKPGESLKISCKGSGYSFTTYWLGWVRQMPGKGLDWIGIMSPVDSDIRYSPSFQGQVTMSVDKSITTAYLQWNSLKASDTAMYYCARRRPGQGYFDFWGQGTLVTVSS VL: DIQMTQSPSSLSASVGDRVTITCRASQGISSWLAWYQQKPEKAPKSLIYAASSLQSGVPSRFSGSGSGTDFTLTISSLQPEDFATYYCQQYNIYPYTFGQGTKLEIK
